{"source": "patent US20130101555A1", "about": "(CYTOMX THERAPEUTICS, published 2013)", "binders": {"B1": {"name": "peptide derived from Jagged1 displayed by clone Jag-ecpX3 (peptide)", "peptide": "RVTCDDYYYGFGCNKFGRPA", "notes": "also called Jagged1-derived peptide; fragment of JAG1"}}, "data": [{"target": "T1, human Notch1 EGF-like domains 11-13 fused to the Fc domain of human IgG1 (hN111-13-hFc) (human, UniProt P46531 411-526, biotinylated with NHS-PEG-biotin (hN111-13-hFc-biot) or labeled with DyLight-488, depending on the round)", "T1 construct": "also called hN111-13-hFc-biot; hN111-13-hFc-Dy488; not shown: Fc domain of human IgG1 as encoded by pINFUSE-hIgG1-Fc2 (InvivoGen)", "T1 sequence (P46531 411-526 limits assumed)": "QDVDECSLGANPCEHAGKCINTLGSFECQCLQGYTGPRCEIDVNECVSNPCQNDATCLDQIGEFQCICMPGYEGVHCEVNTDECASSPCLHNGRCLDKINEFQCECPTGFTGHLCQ", "assay": "flow cytometry of induced E. coli clones, 100 nM hN111-13-hFc-biot then 10 nM SAPE, normalized to scaffold display level", "procedure": "Individual clones were tested by flow cytometry for hN1₁₁₋₁₃-hFc binding by labeling induced cells in TBS-Ca-B with (A.) 50 nM hN1₁₁₋₁₃-hFc-biot or (B.) 100 nM […] hN1₁₁₋₁₃-hFc-biot, followed by 10 nM Streptavidin-R-phycoerythrin (SAPE). Cells were separately labeled with 27 nM Ypet-Mona to measure peptide display level. The display scaffold alone (ecpX3) was used as a negative control.", "values": [{"binder": "B1", "binding result": "binds"}]}, {"target": "T1, human Notch1 EGF-like domains 11-13 …", "assay": "bacterial display library screen, magnetic selection and FACS with labeled hN111-13-hFc", "procedure": "Following two rounds of magnetic selection, the remaining rounds of screening were performed on a Becton Dickinson FACSAria flow cytometer. In the first round of FACS, induced cells were incubated with 500 nM hN1₁₁₋₁₃-hFc-biot, 10 μM hIgG in TBS-Ca-B, washed, and incubated with fluorescent secondary label neutravidin-phycoerythrin (NAPE) (Invitrogen) at 10 nM, before sorting by flow cytometry for fluorescently labeled cells. Cells amplified from overnight growth of the first round FACS population were induced and subjected to a second round of sorting with the same labeling conditions as in the first round or, alternatively, using 50 nM hN1₁₁₋₁₃-hFc-biot. A third round of sorting was conducted as in the second round but with 100 nM hN1₁₁₋₁₃-hFc-biot and the addition of 27 nM Ypet-Mona-SH3 in the secondary labeling step. Mona-SH3 binds an epitope on the C-terminus of the display scaffold, independent of the random peptide on the N-terminus. Cells were then sorted based on the ratio of 576 nm fluorescence (i.e. NAPE binding) to 530 nm fluorescence (i.e. Ypet-Mona binding) in order to normalize for differences in scaffold display level on individual cells.\nAlternatively, third round sorting was conducted by incubating induced cells with 10 nM or alternatively, 50 nM unbiotinylated hN1₁₁₋₁₃-hFc in TBS-Ca-B before washing, labeling with fluorescent secondary 20 μg/ml anti-hIgG-DyLight-488, and sorting based on 530 nm fluorescence. Third round sorting was also conducted using either 50 nM or 250 nM hN1₁₁₋₁₃-hFc that had been fluorescently labeled with DyLight-488 (Thermo Pierce) (hN1₁₁₋₁₃-hFc-Dy488), and 10 μM hIgG, with no secondary labeling.", "values": [{"binder": "PYTFVEQVEYWLHAT", "note": "[PHB3327]", "binding result": "binds"}, {"binder": "ACVIHFLDRISNILE", "note": "[PHB3333]", "binding result": "binds"}, {"binder": "FCYIAAFSAMQRQSC", "note": "[PHB3334]", "binding result": "binds"}, {"binder": "PLYLPEIGWMFGLPT", "note": "[PHB3336]", "binding result": "binds"}, {"binder": "TVLVIPDLHYLYVDR", "note": "[PHB3337]", "binding result": "binds"}, {"binder": "FINNVETALDTIYNL", "note": "[PHB3340]", "binding result": "binds"}, {"binder": "SAKHLHPGRLPPMTK", "note": "[PHB3341]", "binding result": "binds"}, {"binder": "ATMYAYLERLEAILS", "note": "[PHB3343]", "binding result": "binds"}, {"binder": "IYPLDALLRHLNSLC", "note": "[PHB3349]", "binding result": "binds"}, {"binder": "CFPTVVWRELYNLYG", "note": "[PHB3352]", "binding result": "binds"}, {"binder": "NLDFYLNHLYNTLAG", "note": "[PHB3476]", "binding result": "binds"}, {"binder": "DFINSMRSHLQSSDQ", "note": "[PHB3478]", "binding result": "binds"}, {"binder": "EPKCSFCSPLIVPSP", "note": "[PHB3479]", "binding result": "binds"}, {"binder": "PNCIESFLSSIHDSL", "note": "[PHB3480]", "binding result": "binds"}, {"binder": "TDNALFLETVQHYLY", "note": "[PHB3482]", "binding result": "binds"}, {"binder": "CYPSISWLFADAPRN", "note": "[PHB3485]", "binding result": "binds"}, {"binder": "ELTQLLNALVDVRNC", "note": "[PHB3486]", "binding result": "binds"}, {"binder": "LLSSFVETMSSILTC", "note": "[PHB3487]", "binding result": "binds"}, {"binder": "YLLRLPSLEELWGPS", "note": "[PHB3488]", "binding result": "binds"}, {"binder": "ATCYIINHWVERYII", "note": "[PHB3489]", "binding result": "binds"}, {"binder": "FPLNTFDLVHELLSR", "note": "[PHB3324]", "binding result": "binds"}, {"binder": "FLNDIHRFLHWTDLM", "note": "[PHB3325]", "binding result": "binds"}]}]}
